The results in this text go back to US20170158755A1 (PROTHENA BIOSCIENCES, published 2017).

The Kd is a measure of binding affinity in units of concentration. The low end stands for higher affinity, the high end for lower affinity. As usually defined, the koff is a measure of how fast the partners let go of each other. One may read the kon as a measure of how fast the partners come together. Low values mean slow association, high ones fast association.

One experiment has as its target T1, human His-laminin-α4 (human, UniProt Q16363 833-1823, limits assumed).
T1 construct: Bought His-tagged recombinant protein (R & D Systems); also called Human LAMA4; human His-laminin-α4 (R & D Systems)
T1 sequence: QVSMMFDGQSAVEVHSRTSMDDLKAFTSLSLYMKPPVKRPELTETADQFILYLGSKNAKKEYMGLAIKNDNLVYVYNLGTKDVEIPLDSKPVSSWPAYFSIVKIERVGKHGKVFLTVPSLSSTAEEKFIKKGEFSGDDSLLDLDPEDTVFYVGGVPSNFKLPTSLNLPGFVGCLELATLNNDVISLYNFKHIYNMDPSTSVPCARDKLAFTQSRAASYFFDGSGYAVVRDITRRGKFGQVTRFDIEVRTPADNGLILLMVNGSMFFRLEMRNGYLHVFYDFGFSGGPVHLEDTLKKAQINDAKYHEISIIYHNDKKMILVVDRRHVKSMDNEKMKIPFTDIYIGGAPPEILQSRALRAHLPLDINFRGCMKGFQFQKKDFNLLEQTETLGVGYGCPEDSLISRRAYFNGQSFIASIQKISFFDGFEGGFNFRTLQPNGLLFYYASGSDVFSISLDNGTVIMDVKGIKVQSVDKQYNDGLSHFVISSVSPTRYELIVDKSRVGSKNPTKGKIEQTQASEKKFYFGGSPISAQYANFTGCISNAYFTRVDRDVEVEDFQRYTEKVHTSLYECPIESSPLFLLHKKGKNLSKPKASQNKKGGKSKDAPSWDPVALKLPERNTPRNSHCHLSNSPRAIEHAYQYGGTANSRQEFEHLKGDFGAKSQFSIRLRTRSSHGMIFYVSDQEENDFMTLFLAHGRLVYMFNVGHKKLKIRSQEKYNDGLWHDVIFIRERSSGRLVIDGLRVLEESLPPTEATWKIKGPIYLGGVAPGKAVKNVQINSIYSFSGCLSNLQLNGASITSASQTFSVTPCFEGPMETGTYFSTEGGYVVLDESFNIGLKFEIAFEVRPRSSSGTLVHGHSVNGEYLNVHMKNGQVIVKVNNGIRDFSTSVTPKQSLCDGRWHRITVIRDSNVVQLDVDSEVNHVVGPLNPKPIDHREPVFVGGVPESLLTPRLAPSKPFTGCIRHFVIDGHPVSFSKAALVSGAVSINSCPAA
The experiment in a line: Biacore SPR.

The target in a further experiment is T2, mouse His-laminin-α4 (mouse, UniProt P97927 826-1816, limits assumed).
T2 construct: Bought His-tagged recombinant protein; also called Murine LAMA4; recombinant mouse LAMA4-His
T2 sequence (looked up): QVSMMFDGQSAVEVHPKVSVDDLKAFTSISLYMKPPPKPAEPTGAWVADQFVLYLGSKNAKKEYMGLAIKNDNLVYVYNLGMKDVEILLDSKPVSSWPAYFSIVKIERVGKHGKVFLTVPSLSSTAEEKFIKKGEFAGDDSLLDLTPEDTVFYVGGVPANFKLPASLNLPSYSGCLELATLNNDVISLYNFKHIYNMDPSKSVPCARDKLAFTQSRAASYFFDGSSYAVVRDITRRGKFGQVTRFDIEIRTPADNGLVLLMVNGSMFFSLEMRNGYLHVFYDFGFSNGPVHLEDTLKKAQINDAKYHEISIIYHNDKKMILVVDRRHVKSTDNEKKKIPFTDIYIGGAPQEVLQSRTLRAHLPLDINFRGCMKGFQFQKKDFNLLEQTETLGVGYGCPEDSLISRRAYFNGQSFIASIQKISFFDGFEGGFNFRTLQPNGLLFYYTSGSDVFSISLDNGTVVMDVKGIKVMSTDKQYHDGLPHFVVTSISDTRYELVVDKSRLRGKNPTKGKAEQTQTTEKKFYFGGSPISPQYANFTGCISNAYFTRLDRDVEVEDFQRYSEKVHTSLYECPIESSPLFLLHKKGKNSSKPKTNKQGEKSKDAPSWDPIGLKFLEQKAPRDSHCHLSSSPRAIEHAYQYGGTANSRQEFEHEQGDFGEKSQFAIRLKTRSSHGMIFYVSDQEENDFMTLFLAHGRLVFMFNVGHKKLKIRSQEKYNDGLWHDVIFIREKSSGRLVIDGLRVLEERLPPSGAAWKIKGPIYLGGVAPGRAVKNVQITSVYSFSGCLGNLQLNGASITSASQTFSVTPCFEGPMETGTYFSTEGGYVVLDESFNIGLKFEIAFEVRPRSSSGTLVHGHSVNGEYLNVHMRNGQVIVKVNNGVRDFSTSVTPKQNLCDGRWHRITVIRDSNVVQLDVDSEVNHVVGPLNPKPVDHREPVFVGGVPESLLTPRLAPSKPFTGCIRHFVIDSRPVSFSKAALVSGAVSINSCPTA
The experiment in a line: Biacore SPR. (In general: In SPR one partner is held on a chip, and binding of the other changes the refractive index at the surface.)

Another experiment addresses T3, recombinant laminin 411 (human, UniProt P07942 22-1786; P11047 34-1609, limits assumed).
T3 construct: also called LAMA4 in complex with its gamma1 and beta1 chains
The experiment in a line: hMCAM.CHO flow cytometric blocking assay; antibody pre-incubated with laminin 411; blocked partner: human MCAM on CHO cells. As for the experimental part:
The monoclonal antibodies against LAMA4 were tested for their ability to block the binding of LAMA4 to its ligand MCAM. IgG control antibody, 1C1, 5Al2, 5B5, 19C12, and 12D3 were pre-incubated with recombinant LAMA4 protein, LAMA4-positive healthy mouse brain tissue, or LAMA4-displaying human 293 cells. […] For the mouse brain tissue blocking assay, antibodies were used at concentrations of 2.5 ug/ml or 0.04 ug/ml.
Following two washes with FACS buffer (1% FBS in PBS), cells were resuspended with 650-conjugated anti-pan-laminin antibody (1:1000; Novus Biologicals) and incubated for 20 min at 4° C., and washed again. Cells were analyzed for pan-laminin reactivity by flow cytometry using standard procedures.
On the technique in general: In flow cytometry, cells or beads pass a laser one at a time.

T3 sequence (chain, as listed by the source limits assumed, chain 1 of 3): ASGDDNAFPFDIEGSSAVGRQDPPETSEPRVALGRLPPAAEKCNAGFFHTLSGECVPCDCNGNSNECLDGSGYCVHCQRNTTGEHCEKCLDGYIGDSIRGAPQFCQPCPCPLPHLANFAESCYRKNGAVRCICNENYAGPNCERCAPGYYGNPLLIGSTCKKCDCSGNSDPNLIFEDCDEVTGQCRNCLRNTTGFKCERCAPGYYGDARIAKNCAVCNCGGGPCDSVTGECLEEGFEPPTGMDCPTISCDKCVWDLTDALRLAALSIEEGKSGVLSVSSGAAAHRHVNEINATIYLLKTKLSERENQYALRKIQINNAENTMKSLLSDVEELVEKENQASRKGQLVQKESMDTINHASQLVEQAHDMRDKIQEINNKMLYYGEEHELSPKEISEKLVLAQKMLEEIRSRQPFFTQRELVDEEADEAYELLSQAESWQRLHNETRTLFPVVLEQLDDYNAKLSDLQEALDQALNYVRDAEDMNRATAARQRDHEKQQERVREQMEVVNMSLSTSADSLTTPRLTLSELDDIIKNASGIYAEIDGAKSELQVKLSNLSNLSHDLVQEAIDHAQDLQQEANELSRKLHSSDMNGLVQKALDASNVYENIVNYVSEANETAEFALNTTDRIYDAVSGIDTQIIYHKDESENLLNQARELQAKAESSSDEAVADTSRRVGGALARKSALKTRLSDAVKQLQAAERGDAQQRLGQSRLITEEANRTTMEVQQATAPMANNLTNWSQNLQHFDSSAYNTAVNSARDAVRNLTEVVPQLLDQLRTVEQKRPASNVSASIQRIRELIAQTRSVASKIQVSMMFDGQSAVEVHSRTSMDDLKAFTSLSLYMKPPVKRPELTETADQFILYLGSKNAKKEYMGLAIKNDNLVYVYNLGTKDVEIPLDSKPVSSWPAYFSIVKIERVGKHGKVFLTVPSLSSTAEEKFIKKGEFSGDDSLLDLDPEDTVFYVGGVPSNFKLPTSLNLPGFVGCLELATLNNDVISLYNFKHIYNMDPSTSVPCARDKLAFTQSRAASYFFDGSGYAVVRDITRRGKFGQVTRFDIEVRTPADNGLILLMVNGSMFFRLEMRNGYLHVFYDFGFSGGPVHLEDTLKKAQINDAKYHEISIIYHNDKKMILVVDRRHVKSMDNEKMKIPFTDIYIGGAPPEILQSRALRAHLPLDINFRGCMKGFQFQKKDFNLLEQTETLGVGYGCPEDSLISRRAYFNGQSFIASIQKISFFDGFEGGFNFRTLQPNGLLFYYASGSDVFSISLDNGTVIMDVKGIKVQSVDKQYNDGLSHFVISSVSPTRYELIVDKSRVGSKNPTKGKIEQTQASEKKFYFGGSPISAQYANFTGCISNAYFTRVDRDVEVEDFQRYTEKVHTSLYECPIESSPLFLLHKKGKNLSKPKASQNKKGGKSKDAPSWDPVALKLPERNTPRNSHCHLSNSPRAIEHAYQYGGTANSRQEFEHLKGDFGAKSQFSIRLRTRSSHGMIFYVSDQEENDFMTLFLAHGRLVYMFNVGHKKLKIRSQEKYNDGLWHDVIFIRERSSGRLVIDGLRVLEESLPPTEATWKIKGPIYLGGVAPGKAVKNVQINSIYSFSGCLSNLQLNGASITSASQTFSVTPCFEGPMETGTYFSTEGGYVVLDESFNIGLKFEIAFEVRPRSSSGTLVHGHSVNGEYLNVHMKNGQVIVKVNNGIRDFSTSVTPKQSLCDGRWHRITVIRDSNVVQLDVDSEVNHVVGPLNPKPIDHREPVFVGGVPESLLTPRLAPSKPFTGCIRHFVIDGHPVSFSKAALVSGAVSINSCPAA
T3 sequence (P07942 22-1786 limits assumed, chain 2 of 3): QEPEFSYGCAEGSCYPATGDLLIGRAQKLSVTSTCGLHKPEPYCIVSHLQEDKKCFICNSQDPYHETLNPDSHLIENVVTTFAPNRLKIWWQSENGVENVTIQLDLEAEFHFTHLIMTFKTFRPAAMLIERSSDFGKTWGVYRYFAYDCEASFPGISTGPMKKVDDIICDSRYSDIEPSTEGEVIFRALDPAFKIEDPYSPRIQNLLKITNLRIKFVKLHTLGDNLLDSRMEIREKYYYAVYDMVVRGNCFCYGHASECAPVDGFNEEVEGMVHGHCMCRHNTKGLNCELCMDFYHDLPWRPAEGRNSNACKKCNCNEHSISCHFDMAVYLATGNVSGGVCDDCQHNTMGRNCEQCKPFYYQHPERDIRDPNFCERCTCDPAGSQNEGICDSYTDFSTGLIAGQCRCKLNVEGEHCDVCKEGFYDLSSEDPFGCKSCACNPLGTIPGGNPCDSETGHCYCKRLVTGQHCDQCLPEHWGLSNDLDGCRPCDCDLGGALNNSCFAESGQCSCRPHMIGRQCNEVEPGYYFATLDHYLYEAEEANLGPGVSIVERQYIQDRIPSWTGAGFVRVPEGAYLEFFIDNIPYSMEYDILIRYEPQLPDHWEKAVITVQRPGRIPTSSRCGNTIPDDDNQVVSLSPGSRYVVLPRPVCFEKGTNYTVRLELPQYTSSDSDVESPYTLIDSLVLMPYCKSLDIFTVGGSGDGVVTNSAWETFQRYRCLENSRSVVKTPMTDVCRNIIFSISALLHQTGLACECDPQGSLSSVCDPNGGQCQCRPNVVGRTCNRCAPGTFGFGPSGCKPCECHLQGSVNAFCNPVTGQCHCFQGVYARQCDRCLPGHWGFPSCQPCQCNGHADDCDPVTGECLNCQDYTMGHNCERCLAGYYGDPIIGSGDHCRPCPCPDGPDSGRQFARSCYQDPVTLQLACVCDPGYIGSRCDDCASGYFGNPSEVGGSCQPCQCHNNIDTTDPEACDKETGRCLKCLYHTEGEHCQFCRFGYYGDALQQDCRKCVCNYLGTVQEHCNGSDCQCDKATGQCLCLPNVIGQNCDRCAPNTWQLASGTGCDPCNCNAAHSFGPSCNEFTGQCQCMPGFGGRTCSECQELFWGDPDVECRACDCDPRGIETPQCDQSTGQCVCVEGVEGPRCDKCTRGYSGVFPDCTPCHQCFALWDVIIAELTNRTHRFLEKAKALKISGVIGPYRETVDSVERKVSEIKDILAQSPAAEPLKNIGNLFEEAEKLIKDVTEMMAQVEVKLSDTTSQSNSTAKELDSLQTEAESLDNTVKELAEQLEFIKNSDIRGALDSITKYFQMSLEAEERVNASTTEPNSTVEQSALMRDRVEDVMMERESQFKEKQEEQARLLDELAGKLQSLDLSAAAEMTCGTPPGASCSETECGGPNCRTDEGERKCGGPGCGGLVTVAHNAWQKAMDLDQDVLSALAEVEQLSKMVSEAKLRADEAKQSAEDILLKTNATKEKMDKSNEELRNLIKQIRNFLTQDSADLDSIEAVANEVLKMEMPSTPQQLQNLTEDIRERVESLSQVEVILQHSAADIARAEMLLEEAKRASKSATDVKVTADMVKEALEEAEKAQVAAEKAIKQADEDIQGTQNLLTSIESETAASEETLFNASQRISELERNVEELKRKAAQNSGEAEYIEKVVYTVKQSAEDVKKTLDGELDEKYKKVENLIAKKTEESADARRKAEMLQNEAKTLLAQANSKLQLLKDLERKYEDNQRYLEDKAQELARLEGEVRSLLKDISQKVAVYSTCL
T3 sequence (P11047 34-1609 limits assumed, chain 3 of 3): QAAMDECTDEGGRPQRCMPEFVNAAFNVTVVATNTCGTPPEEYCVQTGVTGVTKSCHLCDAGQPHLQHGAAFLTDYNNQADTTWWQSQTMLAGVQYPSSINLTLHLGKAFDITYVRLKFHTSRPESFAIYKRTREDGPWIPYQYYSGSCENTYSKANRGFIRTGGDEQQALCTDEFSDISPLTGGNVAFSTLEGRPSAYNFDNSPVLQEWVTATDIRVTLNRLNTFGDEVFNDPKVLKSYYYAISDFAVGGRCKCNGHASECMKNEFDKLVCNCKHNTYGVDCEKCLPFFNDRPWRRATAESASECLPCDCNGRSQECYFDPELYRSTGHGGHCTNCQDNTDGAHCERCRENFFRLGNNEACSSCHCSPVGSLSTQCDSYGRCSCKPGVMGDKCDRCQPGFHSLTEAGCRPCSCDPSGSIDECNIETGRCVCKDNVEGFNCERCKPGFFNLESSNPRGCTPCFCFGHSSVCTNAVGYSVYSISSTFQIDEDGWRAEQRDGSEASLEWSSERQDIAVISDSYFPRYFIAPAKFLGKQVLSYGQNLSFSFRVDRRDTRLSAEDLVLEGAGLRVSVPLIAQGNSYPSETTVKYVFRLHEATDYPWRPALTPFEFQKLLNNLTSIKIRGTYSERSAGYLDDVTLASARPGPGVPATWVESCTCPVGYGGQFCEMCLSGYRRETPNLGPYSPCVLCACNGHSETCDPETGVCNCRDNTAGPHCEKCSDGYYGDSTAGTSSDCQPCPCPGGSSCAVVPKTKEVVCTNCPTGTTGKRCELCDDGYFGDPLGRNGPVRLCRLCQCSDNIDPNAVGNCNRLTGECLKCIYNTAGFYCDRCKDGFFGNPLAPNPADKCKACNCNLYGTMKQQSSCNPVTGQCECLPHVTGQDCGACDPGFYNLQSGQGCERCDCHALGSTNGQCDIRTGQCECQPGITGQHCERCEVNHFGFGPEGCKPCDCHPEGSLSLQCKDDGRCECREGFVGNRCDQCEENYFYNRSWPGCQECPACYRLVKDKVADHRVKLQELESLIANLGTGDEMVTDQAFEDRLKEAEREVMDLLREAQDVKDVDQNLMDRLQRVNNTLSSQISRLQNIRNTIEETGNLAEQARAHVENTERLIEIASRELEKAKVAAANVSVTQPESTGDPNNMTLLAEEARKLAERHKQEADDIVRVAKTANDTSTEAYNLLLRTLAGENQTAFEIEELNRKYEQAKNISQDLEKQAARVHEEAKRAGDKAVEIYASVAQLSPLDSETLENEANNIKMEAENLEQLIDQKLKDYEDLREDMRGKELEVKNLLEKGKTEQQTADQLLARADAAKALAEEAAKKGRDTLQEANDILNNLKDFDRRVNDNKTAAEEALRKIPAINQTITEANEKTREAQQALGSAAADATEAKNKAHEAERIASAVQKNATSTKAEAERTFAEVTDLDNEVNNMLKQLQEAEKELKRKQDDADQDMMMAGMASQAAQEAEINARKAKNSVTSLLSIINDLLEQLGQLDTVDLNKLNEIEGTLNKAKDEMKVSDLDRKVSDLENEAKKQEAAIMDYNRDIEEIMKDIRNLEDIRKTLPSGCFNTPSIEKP

B1: mouse monoclonal antibody 19C12 (antibody, V domains shown)
VH: QVQLQQSGAELVKPGASVKISCKASGYAFSTYWMNWVKQRPGEGLEWIGQIYPGDGDTNYNGKFKGKATLTADKSSSTAYMQLSSLTSEDSAVYFCARSDGYYDYWGQGTTLTVSS
VL: NIVLTQSPASLAVSLGQRATISCRASESVDSYGTSFMHWYQQKPGQPPKLLICLASSLESGVPARFSGSGSRTDFTLTIDPVEADDAATYYCQQNNEDPPTFGAGTKLELKR
notes: Mouse hybridoma antibody; Mouse IgG2b was used as its isotype control; also called m19C12
In the experiment with human His-laminin-α4, B1 displayed a Kd of 1.27 nM, a koff of 0.00858 s⁻¹ and a kon of 6.72e+06 M⁻¹ s⁻¹. Moreover, in the experiment with mouse His-laminin-α4, the Kd is 0.965 nM, the off-rate constant (koff) amounted to 0.0061 s⁻¹ and the on-rate (kon) was determined as 6.32e+06 M⁻¹ s⁻¹. Besides, the “IC50 (read off the curve)” value with recombinant laminin 411 is approximately 0.03 mg/L.

B2: mouse monoclonal antibody 1C1 (antibody, V domains shown)
VH: QVQLQQSGAELARPGASVKLSCKASGYTFTNYGISWVKQRTGQGLEWIGAIYPRSGNTYYNEKFKGKATLTADKSSSTAYMELRSLTSEDSAVYFCARERDYGSSYALDYWGQGTSVTVSS
VL: DIVMTQSQKFMSTSVGDRVSVTCKASHNVGTNVAWYQQKPGQSPKPLIYSASYRYSGVPDRFTGSGSGTDFTLTISNVQSEDLADYFCQQFNNYPYTFGGGTKLEIKR
notes: version 1 is written here
In the experiment with human His-laminin-α4, B2 yielded a dissociation constant (Kd) of 13.3 nM, a dissociation rate constant (koff) of 0.00917 s⁻¹ and an association rate constant (kon) of 610000 M⁻¹ s⁻¹. In the experiment with mouse His-laminin-α4, the affinity, expressed as Kd, was 16.1 nM; the dissociation rate constant (koff) was 0.00947 s⁻¹; the association rate constant (kon) worked out at 590000 M⁻¹ s⁻¹.
